The assay concerns the target T1, STING (mouse, UniProt Q3TBT3 1-378).
T1 sequence (looked up): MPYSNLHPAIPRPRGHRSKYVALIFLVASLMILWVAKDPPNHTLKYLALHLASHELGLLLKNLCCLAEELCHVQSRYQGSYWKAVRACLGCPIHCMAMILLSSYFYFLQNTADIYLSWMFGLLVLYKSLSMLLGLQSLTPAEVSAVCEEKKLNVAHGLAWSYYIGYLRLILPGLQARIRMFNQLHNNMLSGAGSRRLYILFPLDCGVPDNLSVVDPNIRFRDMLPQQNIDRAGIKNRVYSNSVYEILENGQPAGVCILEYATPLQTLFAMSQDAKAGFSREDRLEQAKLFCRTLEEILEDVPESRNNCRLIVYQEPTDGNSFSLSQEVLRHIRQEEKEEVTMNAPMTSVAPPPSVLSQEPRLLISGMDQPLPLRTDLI
Description: cell-based or functional assay.

As to Ac-NFNVAHGLAWSYYIG-NH2 (not fully specified) [SIP-5], the “IC50 for inhibiting Ifnb mRNA (RT-qPCR, RAW264.7 cells stimulated with 2'3'-cGAMP)” value (“IC50 for inhibiting Ifnb mRNA” for short) was 28.5 µM.

As for NFNVAHGLAWSYYIGYLRLILPELQ (N-terminus acetylated (-Ac); C-terminus amidated (-NH2)) [SIP-7], the “IC50 for inhibiting Ifnb mRNA” value came out at 18.9 µM.

Take Ac-NFNVAHGLAWSYYIGYLRLIL-NH2 (not fully specified) [SIP-6]: the “IC50 for inhibiting Ifnb mRNA” value was 35.3 µM.

On to NFNVAHGLAWSYYIGYLRLILPELQARIRTYNQHYNNLL (N-terminus acetylated (-Ac); C-terminus amidated (-NH2)) [SIP-10], for which the “IC50 for inhibiting Ifnb mRNA” value came to 66.3 µM.

With Ac-LAWSYYIGYLRL-NH2 [SIP-1], the “IC50 for inhibiting Ifnb mRNA” value was found to be 8.6 µM.

As to NFNVAHGLAWSYYIGYLRLILPELQARIRTYN (N-terminus acetylated (-Ac); C-terminus amidated (-NH2)) [SIP-8], the “IC50 for inhibiting Ifnb mRNA” value was 32.6 µM.

NFNVAHGLAWSYYIGYLRLILPELQARIRTYNQHYNNLLR (N-terminus acetylated (-Ac); C-terminus amidated (-NH2)) [SIP-11]: the “IC50 for inhibiting Ifnb mRNA” value amounted to 53.2 µM.

Regarding NFNVAHGLAWSYYIGYLRLILPELQARIRTYNQHYNNL (not fully specified; N-terminus acetylated (-Ac); C-terminus amidated (-NH2)) [SIP-9], the “IC50 for inhibiting Ifnb mRNA” value was 41.9 µM.

These data come from US20250326796A1 (SHANGHAI UNIVERSITY, published 2025).
